Patent CN111484554A (YINGWEIFUSAI BIOTECHNOLOGY CO LTD, dated 2020)
Changes are numbered by the printed parent chain.

B1: 11B6嵌合抗体 (antibody, human IgG4 S228P, kappa, V domains shown)
VH: QVQLQQPGAELVRPGASVKLSCKASGYTFTSYWINWVKQRPGQGLEWIGNIYPSDSYTNYNQKFKDKATLTVDKSSSTAYMQLSSPTSEDSAVYYCTRESQTGTGYYAMDYWGQGTSVTVSS
VL: DIQMTQTTSSLSASLGDRVTISCRASQDISNYLNWYQQKPDGTVKLLIYYTSRLHSGVPSRFSGSGSGTDYSLTISNLEQEDIATYFCQQGNTLPWTFGGGTKLEIKR
notes: Mouse 11B6 variable regions on a human IgG4 constant region and a human kappa constant region; also called 11B6 chimeric antibody
B2: 人源化11B6-hu-a抗体 (antibody, human IgG4 S228P, kappa, V domains shown)
VH: QVQLVQSGAEVKKPGSSVKVSCKASGYTFTSYWINWVRQAPGQGLEWIGNIYPSDSYTNYNQKFQGRVTITADESTSTAYMELSSLRSEDTAVYYCTRESQTGTGYYAMDYWGQGTLVTVSS
VL: DIQMTQSPSSLSASVGDRVTITCQASQDISNYLNWYQQKPGKAPKLLIYYTSRLHSGVPSRFSGSGSGTDFTFTISSLQPEDIATYYCQQGNTLPWTFGGGTKLEIKR
B3: 人源化11B6-hu-b抗体 (antibody, human IgG4 S228P, kappa, V domains shown)
VH: B2 VH with S16A, I70M, A72R, E74T, A79V
VL: B2 VL with Q24R, F73L, I83F, G100Q, L104V

Target: T1, 4-1BB(24-180)-His重组蛋白 (4-1BB胞外段24-180位氨基酸, C端6个His) (UniProt Q07011 24-180)
T1 construct: range 24-180; Human is implied by the human therapeutic context; The monomer was used for immunisation and the ELISA screen; also called 4-1BB-His蛋白; 4-1BB蛋白
Assay: SPR, antibody captured on Protein A chip, 4-1BB protein 6.25-400 nM as analyte

| Kd | Binder |
| --- | --- |
| 3.75 nM | B1 |
| 5.84 nM | B2 |
| 9 nM | B3 |
